Data: patent US8415106B2, “Cell-based screen for agents useful for reducing neuronal demyelination or promoting neuronal remyelination” (Myelin Repair Foundation, Inc., priority 2005, dated 2013)
Like-named read-outs stand apart in the source and are kept apart here.

Test system: myelinating oligodendrocytes in the CNS
Format: in vivo
Text: To study the effect of INF-γ on the myelination of oligodendrocytes during mouse development, transgenic mice that allow for temporally regulated delivery of IFN-γ to the CNS using the tetracycline (tet) controllable system (Lin, et al. (2004) J. Neurosci. 24: 10074-10083) were generated. To drive tTA expression in astrocytes, the transcriptional regulatory region of the glial fibrillary acidic protein (GFAP) gene was chosen (Brenner, et al. (1994) J. Neurosci. 14: 1030-1037). GFAP/tTA mice were mated with TRE/IFN-γ mice to produce animals hemizygous for both transgenes. When these mice are maintained on doxycycline (DOX+), expression of the IFN-γ transgene is repressed (FIG. 10A); when the double transgenic mice are released from doxycycline (DOX−) INF-γ is expressed. For the purpose of these experiments, mice received doxycycline up to day 14 of development (E14), at which time the experimental animals (DOX−) stopped receiving doxycycline, while the control animals (DOX+) were continuously fed the dug. The mRNA for IFN-γ could be detected in the DOX− mice as early as 10 days after birth (data not shown).
Brain and spinal cord tissue were analyzed using immunohistochemical methods as follows. Anesthetized mice were perfused through the left cardiac ventricle with 4% paraformaldehyde in 0.1M PBS. The half-saggital brains and transcervical spinal cord were removed, postfixed with paraformaldehyde, cryopreserved in 30% sucrose, embedded in OCT and frozen on dry ice. Frozen sections were cut in a cryostat at a thickness of 10 μm. Coronal sections at the fornix region of the corpus callosum corresponding to. Sidman sections 241-251 were selected for use, and all comparative analyses were restricted to midline corpus callosum (Sidman, et al. (1971) Atlas of the Mouse Brain and Spinal Cord (Harvard Univ. Press, Cambridge, Mass.). For immunohistochemistry, frozen sections were treated with −20° C. acetone, blocked with PBS containing 10% NGS and 0.1% Triton X-100 and incubated overnight with the primary antibody diluted in blocking solution. Appropriate fluorochrome- or enzyme-labeled secondary antibodies (Vector Laboratories, Burlingame, Calif.) were used for detection. An antibody against CC1 (APC7, 1:50; EMD Biosciences, Inc., La Jolla, Calif.) was used as a marker for mature oligodendrocytes. Antibody against MBP (1:1000; Sternberger Monoclonals, Lutherville, Mass.) was used to verify the degree of myelination. Antibody against active-caspase-3 (1:50, Cell signaling Technology, Beverly, Mass.) was used as a marker for apoptotic cells. Fluorescent stained sections were mounted with Vectashield mounting medium with DAPI (Vector Laboratories) and visualized with a Zeiss Axioplan fluorescence microscope. Images were captured using a Photometrics PXL CCD camera connected to an Apple Macintosh computer using the Open Lab software suite. Immunopositive cells were quantified by counting positive cells within the median of the corpus callosum, confined to an area of 0.04 mm^2. Only those cells with nuclei observable by DAPI staining were counted. Each MBP immunostaining slide was scored on a scale of zero to four. A score of zero indicates complete demyelination, and a score of four indicates normal myelination in the corpus callosum of adult mice. […]

B1: IFN-γ: pleotropic cytokine secreted by activated T lymphocytes and natural killer cells; recombinant rat IFN-γ added to cultures or transgenically expressed in mouse CNS (protein, UniProt P01581 23-156, looked up)
Interferon gamma: QGTLIESLESLKNYFNSSSMDAMEGKSLLLDIWRNWQKDGNTKILESQIISFYLRLFEVLKDNQAISNNISVIESHLITNFFSNSKAKKDAFMSIAKFEVNNPQIQHKAVNELIRVIHQLSPESSLRKRKRSRC
Q: For B1, which “unmyelinated axons in the spinal cord” value (14-day-old, IFN-γ expressed, PERK+/− background, doxycycline-maintained 9.8%±6.1%) is on record?
A: 81%±14.9%

Q: And the “decrease of oligodendrocyte numbers in the spinal cord” value (14-day-old, IFN-γ expressing, PERK+/− background)?
A: more than 50%

Q: And the “unmyelinated axons in the spinal cord” value (14-day-old, released from doxycycline at E14, wild-type background)?
A: 30%±12.9%

Q: What about the “mice that died by post natal day (PND) 27” value (double transgenic, released from doxycycline at E14, PERK+/− background) of the same molecule?
A: more than 90%

Q: And the “TUNEL positive oligodendrocytes in the cervical spinal cord, PERK+/− versus wild-type background” value (released from doxycycline at E 14)?
A: 2.5 times
